Measured values reported in patent US20230147840A1 (Chugai, published 2023).
Like-named read-outs stand apart in the source and are kept apart here.

T1: Human CD3eg linker (human)
T1 construct: Single-chain soluble construct; also called recombinant human CD3
T1 chain: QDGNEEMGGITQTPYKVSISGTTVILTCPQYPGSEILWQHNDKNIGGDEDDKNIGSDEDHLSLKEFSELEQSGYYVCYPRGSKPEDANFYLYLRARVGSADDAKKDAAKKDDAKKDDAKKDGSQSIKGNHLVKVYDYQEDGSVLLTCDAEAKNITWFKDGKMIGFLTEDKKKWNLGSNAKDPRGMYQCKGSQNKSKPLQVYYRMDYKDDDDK


Assays:
[1] = molecular target: T1, Human CD3eg linker; assay: SPR Biacore 8K, Ab captured on anti-human Fc, CD3 as analyte, 25 C
Protocol: (§1) Binding affinity of Dual-Fab antibodies (Dual-Ig) to human CD3 were assessed at 25 degrees C. using Biacore 8K instrument (GE Healthcare). Anti-human Fc (GE Healthcare) was immobilized onto all flow cells of a CM4 sensor chip using amine coupling kit (GE Healthcare). Antibodies were captured onto the anti-Fc sensor surfaces, then recombinant human CD3 or CD137 was injected over the flow cell. All antibodies and analytes were prepared in ACES pH 7.4 containing 20 mM ACES, 150 mM NaCl, 0.05% Tween 20, 0.005% NaN₃. Sensor surface was regenerated each cycle with 3M MgCl₂. […] CD137 binding affinity assay was conducted in same condition except assay temperature was set at 37 degrees C.

[2] = molecular target: T2, Human CD137 extracellular domain (ECD) (human); assay: SPR Biacore 8K, Ab captured on anti-human Fc, CD137 as analyte, 37 C
T2 construct: also called Human CD137 ECD; recombinant human CD137
T2 sequence (chain, as listed by the source limits assumed): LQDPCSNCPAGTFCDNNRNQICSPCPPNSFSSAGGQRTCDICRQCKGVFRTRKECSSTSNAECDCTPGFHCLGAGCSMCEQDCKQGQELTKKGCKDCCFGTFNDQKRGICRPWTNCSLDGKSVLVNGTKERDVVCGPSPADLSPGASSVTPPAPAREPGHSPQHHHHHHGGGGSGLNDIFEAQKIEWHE
Protocol: as §1

[3] = molecular target: T1, Human CD3eg linker; assay: SPR Biacore 8K, 25 C; reference xGPC3/DualAE05-xSG1350kSG1349hV11
Protocol: as §1, with “Dual-Ig” for “Dual-Fab”, “antibodies” for “antibodies (Dual-Ig)”
This is caused by faster off rate in FAST-Ig construct. […] This is caused by faster off rate in FAST-Ig construct.

[4] = molecular target: T2, Human CD137 extracellular domain (ECD); assay: SPR Biacore 8K, Ab captured on anti-human Fc, CD137 as analyte, 37 C; remark: listed apart in the source
Protocol: as §1, with “Dual-Ig” for “Dual-Fab”, “antibodies” for “antibodies (Dual-Ig)”

[5] = molecular target: T1, Human CD3eg linker; assay: SPR Biacore 8K, Ab captured on anti-human Fc, CD3 as analyte, 25 C
Protocol: as §1, with “Dual-Ig” for “Dual-Fab”, “antibodies” for “antibodies (Dual-Ig)”

Row | Binder | Kd [1] | koff [1] | kon [1] | Kd [2] | koff [2] | kon [2] | fold weaker binding affinity than CrossMab xSG1350 [3] | Kd [4] | koff [4] | kon [4] | Kd [5] | koff [5] | kon [5]
1 | H1595L0581 (antibody, V domains shown, Dual-Ig with an Fc; also called DualAE24; dBBDu183H1595/dBBDu072L0581) VH: QVQLVESGGGLVQPGRSLRLSCAASGFKFSNTWMHWVRQAPGKGLEWVAQIKDKYNAYAAYYAPSVKGRFTISRDDSKNSIYLQMNSLKTEDTAVYYCHYIHYASASTLLPAFGVDAWGQGTTVTVSS VL: DIVMTQSPLSLPVTPGEPASISCQPSQEVVHMNRNTYLHWYQQKPGQAPRLLIYKVSNRFPGVPDRFSGSGSGTDFTLKISRVEAEDVGVYYCAQGTSHPFTFGQGTKLEIK | 57 nM | 0.00658 s⁻¹ | 116000 M⁻¹ s⁻¹ | 195 nM | 0.00269 s⁻¹ | 13800 M⁻¹ s⁻¹ |  |  |  |  |  |  | 
2 | GPC3EK/DualAE05KE-SG1365k1363hV11 (bispecific antibody, V domains shown, 1+1 tri-specific, FAST-Ig format; Full chains not tied by name) VH 1: QVQLVQSGAEVKKPGASVTVSCKASGYTFTDYEMHWIREPPGEGLEWIGAIDGPTPDTAYSEKFKGRVTLTADKSTSTAYMELSSLTSEDTAVYYCTRFYSYTYWGQGTLVTVSS VL 1: DIVMTQSPLSLPVTPGEPASISCRSSQPLVHSNRNTYLHWYQKKPGQAPRLLIYKVSNRFSGVPDRFSGSGSGTDFTLKISRVEAEDVGVYYCGQGTQVPYTFGQGTKLEIK VH 2: QVQLVESGGGLVQPGRSLRLSCAASGFKFSNVWFHWVRKAPGKGLEWVAQIKDYYNAYAAYYAPSVKGRFTISRDDSKNSIYLQMNSLKTEDTAVYYCHYVHYASASTLLPAEGVDAWGQGTTVTVSS VL 2: DIVMTQSPLSLPVTPGEPASISCQPSQEVVHMNRNTYLHWYQEKPGQAPRLLIYKVSNRFPGVPDRFSGSGSGTDFTLKISRVEAEDVGVYYCAQGTSHPFTFGQGTKLEIK |  |  |  |  |  |  | ~3 fold | 43.5 nM | 0.00063 s⁻¹ | 14500 M⁻¹ s⁻¹ | 751 nM | 0.0628 s⁻¹ | 83500 M⁻¹ s⁻¹
3 | H1644L0939 (antibody, V domains shown, Dual-Ig with an Fc; also called DualAE16; dBBDu183H1644/dBBDu072L0939) VH: QVQLVESGGGLVQPGRSLRLSCAASGFVFSNVWFHWVRQAPGKGLEWVAQIKDYYNAYAAYYAPSVKGRFTISRDDSKNSIYLQMNSLKTEDTAVYYCHYVHYASASTLLPAEGVDAWGQGTTVTVSS VL: DIVMTQSPLSLPVTPGEPASISCQPSQEVVHMNRNTYLHWYQQKPGQAPRLLIYKVSNVFPGVPDRFSGSGSGTDFTLKISRVEAEDVGVYYCAQGTHHPFTFGQGTKLEIK | 1450 nM | 0.0808 s⁻¹ | 55800 M⁻¹ s⁻¹ | 36.8 nM | 0.000444 s⁻¹ | 12100 M⁻¹ s⁻¹ |  |  |  |  |  |  | 

Further binders by falling Kd [1], results first:

Row | Kd [1] | koff [1] | kon [1] | Kd [2] | koff [2] | kon [2] | fold weaker binding affinity than CrossMab xSG1350 [3] | Kd [4] | koff [4] | kon [4] | Kd [5] | koff [5] | kon [5] | Binder
4 | 273 nM | 0.034 s⁻¹ | 124000 M⁻¹ s⁻¹ | 275 nM | 0.00406 s⁻¹ | 14800 M⁻¹ s⁻¹ |  |  |  |  |  |  |  | H1579L0581 (antibody, V domains shown, Dual-Ig with an Fc; also called DualAE25; dBBDu183H1579/dBBDu072L0581) VH: QVQLVESGGGLVQPGRSLRLSCAASGFKFSHVWFHWVRQAPGKGLEWVAQIKDKYNAYAAYYAPSVKGRFTISRDDSKNSIYLQMNSLKTEDTAVYYCHYVHYASASTLLPAFGVDAWGQGTTVTVSS VL: DIVMTQSPLSLPVTPGEPASISCQPSQEVVHMNRNTYLHWYQQKPGQAPRLLIYKVSNRFPGVPDRFSGSGSGTDFTLKISRVEAEDVGVYYCAQGTSHPFTFGQGTKLEIK
5 | 158 nM | 0.0188 s⁻¹ | 121000 M⁻¹ s⁻¹ | 70.6 nM | 0.00103 s⁻¹ | 14600 M⁻¹ s⁻¹ |  |  |  |  |  |  |  | H1573L0581 (antibody, V domains shown, Dual-Ig with an Fc; also called DualAE07; dBBDu183H1573/dBBDu072L0581) VH: QVQLVESGGGLVQPGRSLRLSCAASGFKFSNVWFHWVRQAPGKGLEWVAQIKDYYNAYAAYYAPSVKGRFTISRDDSKNSIYLQMNSLKTEDTAVYYCHYVHYASASTLLPAFGVDAWGQGTTVTVSS VL: DIVMTQSPLSLPVTPGEPASISCQPSQEVVHMNRNTYLHWYQQKPGQAPRLLIYKVSNRFPGVPDRFSGSGSGTDFTLKISRVEAEDVGVYYCAQGTSHPFTFGQGTKLEIK
6 | 20.2 nM | 0.00192 s⁻¹ | 95000 M⁻¹ s⁻¹ | 208 nM | 0.00311 s⁻¹ | 15000 M⁻¹ s⁻¹ |  |  |  |  |  |  |  | H0888L0581 (antibody, V domains shown, Dual-Ig with an Fc; also called DualAE02; dBBDu183H0888/dBBDu072L0581) VH: QVQLVESGGGLVQPGRSLRLSCAASGFKFSNVWMHWVRQAPGKGLEWVAQIKDKWNAYAAYYAPSVKGRFTISRDDSKNSIYLQMNSLKTEDTAVYYCHYIHYASASTLLPAFGIDAWGQGTTVTVSS VL: DIVMTQSPLSLPVTPGEPASISCQPSQEVVHMNRNTYLHWYQQKPGQAPRLLIYKVSNRFPGVPDRFSGSGSGTDFTLKISRVEAEDVGVYYCAQGTSHPFTFGQGTKLEIK
